The source of these data is article PMC5071567.

Broadly, the Kd is a measure of binding affinity in units of concentration.

One assay addresses transthyretin (UniProt P02766). As to conditions: cited from earlier work.
The target of assay [1] is megalin (LRP-2) (mouse (endogenous in cultured hippocampal neurons)) (UniProt A2ARV4).
Chain of megalin (LRP-2) (mouse (endogenous in cultured hippocampal neurons)) (A2ARV4 26-4660): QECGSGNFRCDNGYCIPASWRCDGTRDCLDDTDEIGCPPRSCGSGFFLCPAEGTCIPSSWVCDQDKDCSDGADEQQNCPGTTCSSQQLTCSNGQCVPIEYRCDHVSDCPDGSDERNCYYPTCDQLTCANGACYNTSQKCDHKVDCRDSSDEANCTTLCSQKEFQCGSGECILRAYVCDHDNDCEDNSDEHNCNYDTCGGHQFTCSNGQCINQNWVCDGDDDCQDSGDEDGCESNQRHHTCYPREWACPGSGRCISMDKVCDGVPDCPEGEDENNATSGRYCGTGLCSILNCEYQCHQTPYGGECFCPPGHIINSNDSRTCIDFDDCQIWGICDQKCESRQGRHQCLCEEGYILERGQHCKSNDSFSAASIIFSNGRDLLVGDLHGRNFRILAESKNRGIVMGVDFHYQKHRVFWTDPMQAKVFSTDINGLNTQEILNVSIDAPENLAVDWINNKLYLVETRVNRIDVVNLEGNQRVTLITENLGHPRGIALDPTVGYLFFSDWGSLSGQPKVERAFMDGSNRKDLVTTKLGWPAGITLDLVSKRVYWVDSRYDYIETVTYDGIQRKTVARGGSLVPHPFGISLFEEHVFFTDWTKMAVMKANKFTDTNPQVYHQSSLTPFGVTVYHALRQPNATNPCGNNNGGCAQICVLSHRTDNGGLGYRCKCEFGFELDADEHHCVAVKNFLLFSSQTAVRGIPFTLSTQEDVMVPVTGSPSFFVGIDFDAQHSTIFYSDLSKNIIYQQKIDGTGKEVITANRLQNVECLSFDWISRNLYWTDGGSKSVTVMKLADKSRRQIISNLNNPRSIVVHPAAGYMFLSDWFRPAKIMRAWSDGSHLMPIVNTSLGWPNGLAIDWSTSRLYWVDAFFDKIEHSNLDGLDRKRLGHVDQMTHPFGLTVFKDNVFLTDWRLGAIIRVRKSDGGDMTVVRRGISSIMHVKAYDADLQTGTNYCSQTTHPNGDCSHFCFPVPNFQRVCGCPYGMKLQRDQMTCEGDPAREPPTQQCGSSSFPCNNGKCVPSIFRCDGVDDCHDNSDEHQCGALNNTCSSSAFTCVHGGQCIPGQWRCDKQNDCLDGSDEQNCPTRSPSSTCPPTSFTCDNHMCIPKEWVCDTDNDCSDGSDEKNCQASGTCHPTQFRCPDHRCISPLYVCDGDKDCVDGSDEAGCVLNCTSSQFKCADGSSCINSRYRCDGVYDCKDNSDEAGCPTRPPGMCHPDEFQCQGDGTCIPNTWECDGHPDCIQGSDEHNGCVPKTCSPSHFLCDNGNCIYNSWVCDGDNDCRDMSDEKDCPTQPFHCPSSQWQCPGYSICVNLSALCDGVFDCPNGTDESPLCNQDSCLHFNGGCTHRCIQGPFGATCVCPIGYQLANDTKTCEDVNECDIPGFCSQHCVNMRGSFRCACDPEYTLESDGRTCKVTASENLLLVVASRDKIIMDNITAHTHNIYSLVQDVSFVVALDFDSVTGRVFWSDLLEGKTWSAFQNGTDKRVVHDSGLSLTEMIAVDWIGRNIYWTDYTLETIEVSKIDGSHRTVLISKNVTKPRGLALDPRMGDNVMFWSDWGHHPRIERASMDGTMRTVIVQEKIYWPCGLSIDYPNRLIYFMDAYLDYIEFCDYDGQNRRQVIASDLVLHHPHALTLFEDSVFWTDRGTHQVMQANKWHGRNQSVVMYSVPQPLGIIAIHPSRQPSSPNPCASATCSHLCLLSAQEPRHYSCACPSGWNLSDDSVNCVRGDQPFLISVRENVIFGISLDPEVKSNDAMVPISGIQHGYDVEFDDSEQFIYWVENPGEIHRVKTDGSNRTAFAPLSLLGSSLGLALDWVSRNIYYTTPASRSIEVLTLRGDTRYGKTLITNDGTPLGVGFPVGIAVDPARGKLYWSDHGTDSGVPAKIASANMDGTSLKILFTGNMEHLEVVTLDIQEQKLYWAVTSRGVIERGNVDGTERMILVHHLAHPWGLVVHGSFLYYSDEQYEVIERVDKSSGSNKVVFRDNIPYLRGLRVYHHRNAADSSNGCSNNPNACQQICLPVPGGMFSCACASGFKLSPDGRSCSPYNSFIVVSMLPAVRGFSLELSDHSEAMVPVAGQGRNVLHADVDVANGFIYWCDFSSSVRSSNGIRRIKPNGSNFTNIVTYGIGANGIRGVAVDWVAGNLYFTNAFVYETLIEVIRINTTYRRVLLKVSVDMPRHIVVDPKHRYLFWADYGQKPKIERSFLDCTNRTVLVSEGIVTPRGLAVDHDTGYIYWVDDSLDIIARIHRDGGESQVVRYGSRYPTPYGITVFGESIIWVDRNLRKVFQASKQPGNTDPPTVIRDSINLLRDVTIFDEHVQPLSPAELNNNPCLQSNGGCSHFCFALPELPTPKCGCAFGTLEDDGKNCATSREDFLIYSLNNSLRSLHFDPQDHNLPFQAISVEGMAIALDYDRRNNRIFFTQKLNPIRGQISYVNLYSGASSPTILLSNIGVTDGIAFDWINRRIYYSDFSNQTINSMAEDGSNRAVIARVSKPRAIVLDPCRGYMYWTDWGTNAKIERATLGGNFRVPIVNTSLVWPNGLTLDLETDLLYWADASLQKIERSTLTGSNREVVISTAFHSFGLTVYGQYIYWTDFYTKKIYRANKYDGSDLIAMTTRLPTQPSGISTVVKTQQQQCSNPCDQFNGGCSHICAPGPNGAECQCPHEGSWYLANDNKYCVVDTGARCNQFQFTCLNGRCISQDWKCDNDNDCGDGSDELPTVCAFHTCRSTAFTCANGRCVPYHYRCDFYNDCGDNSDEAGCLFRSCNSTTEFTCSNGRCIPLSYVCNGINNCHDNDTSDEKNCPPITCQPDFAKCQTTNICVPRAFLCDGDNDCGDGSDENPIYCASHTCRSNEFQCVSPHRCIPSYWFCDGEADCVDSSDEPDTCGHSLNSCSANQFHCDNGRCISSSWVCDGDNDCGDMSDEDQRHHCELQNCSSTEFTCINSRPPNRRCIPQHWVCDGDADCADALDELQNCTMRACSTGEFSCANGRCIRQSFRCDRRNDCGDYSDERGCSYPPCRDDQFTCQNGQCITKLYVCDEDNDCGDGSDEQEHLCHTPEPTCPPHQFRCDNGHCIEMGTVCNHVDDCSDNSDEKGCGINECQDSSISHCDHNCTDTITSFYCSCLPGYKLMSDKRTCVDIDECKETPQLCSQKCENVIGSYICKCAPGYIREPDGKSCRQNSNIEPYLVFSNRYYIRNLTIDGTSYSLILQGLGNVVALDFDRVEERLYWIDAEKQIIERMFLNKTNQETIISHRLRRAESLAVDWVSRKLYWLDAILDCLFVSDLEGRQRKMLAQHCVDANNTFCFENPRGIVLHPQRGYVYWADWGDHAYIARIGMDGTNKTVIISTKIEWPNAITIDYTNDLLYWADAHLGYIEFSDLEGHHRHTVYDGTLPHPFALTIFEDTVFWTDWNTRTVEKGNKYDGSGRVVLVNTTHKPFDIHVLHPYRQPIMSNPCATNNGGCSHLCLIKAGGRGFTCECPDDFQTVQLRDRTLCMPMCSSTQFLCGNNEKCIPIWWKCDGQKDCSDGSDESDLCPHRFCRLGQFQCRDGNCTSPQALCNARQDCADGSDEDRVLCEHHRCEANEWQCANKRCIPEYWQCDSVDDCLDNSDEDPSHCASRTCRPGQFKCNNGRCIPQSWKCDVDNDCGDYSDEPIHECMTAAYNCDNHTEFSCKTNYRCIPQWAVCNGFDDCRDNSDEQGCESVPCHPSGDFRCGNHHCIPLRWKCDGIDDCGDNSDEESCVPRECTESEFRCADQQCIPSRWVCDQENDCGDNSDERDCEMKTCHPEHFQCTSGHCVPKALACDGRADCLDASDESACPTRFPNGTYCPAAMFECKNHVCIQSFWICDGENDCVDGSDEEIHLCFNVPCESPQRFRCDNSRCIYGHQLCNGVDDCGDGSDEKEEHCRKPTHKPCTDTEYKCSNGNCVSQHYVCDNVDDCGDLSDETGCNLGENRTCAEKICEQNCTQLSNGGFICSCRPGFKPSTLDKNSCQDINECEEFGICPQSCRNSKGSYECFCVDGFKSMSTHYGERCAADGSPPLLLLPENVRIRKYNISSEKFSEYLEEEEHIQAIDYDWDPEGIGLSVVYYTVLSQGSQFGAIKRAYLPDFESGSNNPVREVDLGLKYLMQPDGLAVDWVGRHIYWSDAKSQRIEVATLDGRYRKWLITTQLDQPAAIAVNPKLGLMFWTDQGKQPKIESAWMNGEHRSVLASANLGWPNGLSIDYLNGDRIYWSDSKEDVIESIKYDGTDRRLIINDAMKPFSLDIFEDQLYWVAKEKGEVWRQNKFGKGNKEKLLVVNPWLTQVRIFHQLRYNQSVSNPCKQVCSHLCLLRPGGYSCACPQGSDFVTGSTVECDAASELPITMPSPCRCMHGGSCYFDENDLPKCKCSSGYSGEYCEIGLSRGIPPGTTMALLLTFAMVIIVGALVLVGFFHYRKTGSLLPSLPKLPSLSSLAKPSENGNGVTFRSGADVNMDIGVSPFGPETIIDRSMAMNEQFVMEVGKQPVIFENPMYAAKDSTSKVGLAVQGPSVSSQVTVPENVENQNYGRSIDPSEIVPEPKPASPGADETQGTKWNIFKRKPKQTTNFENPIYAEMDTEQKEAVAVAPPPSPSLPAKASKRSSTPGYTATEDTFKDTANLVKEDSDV

Consider megalin (from UniProt P98164), for which the Kd with transthyretin was 0.5 µM.

“recombinant mouse transthyretin (from UniProt P07309 21-147) (ligand)”: in assay [1], the activation of Src (phospho-Tyr416) by western blot in TTR KO cultured hippocampal neurons, 30 min after mouse TTR (55 μg/ml) was 30 to 50%; the rise of CREB phosphorylation (Ser133) by western blot in TTR KO cultured hippocampal neurons stimulated with mouse TTR (55 μg/ml) is 20%; the rise of phosphorylated Akt (Ser473) by western blot in TTR KO cultured hippocampal neurons, 30 min after mouse TTR (55 μg/ml) came out at 23%; the rise of phosphorylated ERK by western blot in TTR KO cultured hippocampal neurons, 30 min after mouse TTR (55 μg/ml) amounted to 35%.
